Laboratory results taken from patent US20060241051A1 (Takeda / Millennium, published 2006).
Square brackets hold non-standard residues; d marks the D form. Primed or numbered codes have the meaning given here. Ends that are not written are not given here. * marks the point of attachment. Propanoyl(3-indol-3-yl) = O=C(CCc1c[nH]c2ccccc12)*; Phe(3-Cl) = N[C@@H](Cc1cccc(Cl)c1)C(=O)O; Phe(4-Cl) = N[C@@H](Cc1ccc(Cl)cc1)C(=O)O; Phe(4-NH2) = Nc1ccc(C[C@H](N)C(=O)O)cc1; Phe(2-Cl) = N[C@@H](Cc1ccccc1Cl)C(=O)O; 1Nal = N[C@@H](Cc1cccc2ccccc12)C(=O)O; 2Nal = N[C@@H](Cc1ccc2ccccc2c1)C(=O)O; Arg(Me) = CNC(=N)NCCC[C@H](N)C(=O)O; Diphenylacetyl′ = not defined here; d3Pal = N[C@H](Cc1cccnc1)C(=O)O; azaGly = NNC(=O)O

B1: Compound No. 289: des(1)-[D-Pya(3) 2,AzaGly7,Arg(Me)9]MS10 (peptide)
peptide: [d3Pal]WNSF[azaGly]L[Arg(Me)]F-NH2
modifications: N-terminus assumed
SMILES: CNC(=N)NCCC[C@H](NC(=O)[C@H](CC(C)C)NC(=O)NNC(=O)[C@H](Cc1ccccc1)NC(=O)[C@H](CO)NC(=O)[C@H](CC(N)=O)NC(=O)[C@H](Cc1c[nH]c2ccccc12)NC(=O)[C@H](N)Cc1cccnc1)C(=O)N[C@@H](Cc1ccccc1)C(N)=O
notes: also called [D-Pya(3)2,AzaGly7,Arg(Me)9]MS10-(2-10)
B2: Compound No. 270: [D-Tyr1,Phe3,Ser-Phe5,AzaGly7,Arg(Me)9]MS10 (peptide)
peptide: [dY]NFNSFF[azaGly]L[Arg(Me)]F-NH2
notes: 11 residues; also called Endo-Phe5a-[D-Tyr1,Phe3,AzaGly7,Arg(Me)9]MS10
B3: Compound No. 248: [D-Tyr1,Phe(3Cl) 3,AzaGly7,Arg(Me)9]MS10 (peptide)
peptide: [dY]N[Phe(3-Cl)]NSF[azaGly]L[Arg(Me)]F-NH2
modifications: N-terminus assumed
SMILES: CNC(=N)NCCC[C@H](NC(=O)[C@H](CC(C)C)NC(=O)NNC(=O)[C@H](Cc1ccccc1)NC(=O)[C@H](CO)NC(=O)[C@H](CC(N)=O)NC(=O)[C@H](Cc1cccc(Cl)c1)NC(=O)[C@H](CC(N)=O)NC(=O)[C@H](N)Cc1ccc(O)cc1)C(=O)N[C@@H](Cc1ccccc1)C(N)=O
B4: Compound No. 284: [D-Tyr1,D-Asn2,Thr3,AzaGly7,Arg(Me)9]MS10 (peptide)
peptide: [dY][dN]TNSF[azaGly]L[Arg(Me)]F-NH2
modifications: N-terminus assumed
SMILES: CNC(=N)NCCC[C@H](NC(=O)[C@H](CC(C)C)NC(=O)NNC(=O)[C@H](Cc1ccccc1)NC(=O)[C@H](CO)NC(=O)[C@H](CC(N)=O)NC(=O)[C@@H](NC(=O)[C@@H](CC(N)=O)NC(=O)[C@H](N)Cc1ccc(O)cc1)[C@@H](C)O)C(=O)N[C@@H](Cc1ccccc1)C(N)=O
B5: Compound No. 245: [D-Tyr1,Nal(1)3,AzaGly7,Arg(Me)9]MS10 (peptide)
peptide: [dY]N[1Nal]NSF[azaGly]L[Arg(Me)]F-NH2
modifications: N-terminus assumed
SMILES: CNC(=N)NCCC[C@H](NC(=O)[C@H](CC(C)C)NC(=O)NNC(=O)[C@H](Cc1ccccc1)NC(=O)[C@H](CO)NC(=O)[C@H](CC(N)=O)NC(=O)[C@H](Cc1cccc2ccccc12)NC(=O)[C@H](CC(N)=O)NC(=O)[C@H](N)Cc1ccc(O)cc1)C(=O)N[C@@H](Cc1ccccc1)C(N)=O
B6: Compound No. 246: [D-Tyr1,Nal(2) 3,AzaGly7,Arg(Me)9]MS10 (peptide)
peptide: [dY]N[2Nal]NSF[azaGly]L[Arg(Me)]F-NH2
modifications: N-terminus assumed
SMILES: CNC(=N)NCCC[C@H](NC(=O)[C@H](CC(C)C)NC(=O)NNC(=O)[C@H](Cc1ccccc1)NC(=O)[C@H](CO)NC(=O)[C@H](CC(N)=O)NC(=O)[C@H](Cc1ccc2ccccc2c1)NC(=O)[C@H](CC(N)=O)NC(=O)[C@H](N)Cc1ccc(O)cc1)C(=O)N[C@@H](Cc1ccccc1)C(N)=O
B7: Compound No. 258: [D-Pya(3)1,AzaGly7,Arg(Me)9]MS10 (peptide)
peptide: [d3Pal]NWNSF[azaGly]L[Arg(Me)]F-NH2
modifications: N-terminus assumed
SMILES: CNC(=N)NCCC[C@H](NC(=O)[C@H](CC(C)C)NC(=O)NNC(=O)[C@H](Cc1ccccc1)NC(=O)[C@H](CO)NC(=O)[C@H](CC(N)=O)NC(=O)[C@H](Cc1c[nH]c2ccccc12)NC(=O)[C@H](CC(N)=O)NC(=O)[C@H](N)Cc1cccnc1)C(=O)N[C@@H](Cc1ccccc1)C(N)=O
B8: Compound No. 265: des(1-3)-Indole-3-carbonyl-[AzaGly7,Arg(Me)9]MS10 (peptide)
peptide: {Indole‑3‑carbonyl}-NSF[azaGly]L[Arg(Me)]F-NH2
notes: also called des(1-3)-Indole-3-carboxyl-[AzaGly7,Arg(Me)9]MS10

Assays:
[1] = target: T1, human OT7T175 (metastin receptor) (human, UniProt Q969F8 1-398); experiment: cell-based or functional assay
T1 sequence (Q969F8 whole entry L364H): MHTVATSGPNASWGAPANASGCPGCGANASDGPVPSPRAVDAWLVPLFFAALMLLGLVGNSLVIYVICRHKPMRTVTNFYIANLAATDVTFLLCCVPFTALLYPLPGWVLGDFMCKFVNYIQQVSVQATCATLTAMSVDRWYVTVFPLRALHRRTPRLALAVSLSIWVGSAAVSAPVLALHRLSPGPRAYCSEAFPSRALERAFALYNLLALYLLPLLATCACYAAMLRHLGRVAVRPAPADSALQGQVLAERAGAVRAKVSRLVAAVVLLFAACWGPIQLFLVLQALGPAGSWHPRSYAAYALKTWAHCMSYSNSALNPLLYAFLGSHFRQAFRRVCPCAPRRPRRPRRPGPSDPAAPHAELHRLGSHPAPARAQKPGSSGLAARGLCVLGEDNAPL

[2] = target: T1, human OT7T175 (metastin receptor); experiment: FMAT competition with Cy-5-labeled metastin (40-54), hOT7T175-expressed CHO cells
Method: h0T7T175-Expressed CHO cells were cultured in MEM-α medium (nucleic acid-free) containing 10% dialyzed serum. The medium was removed and the adherent cells were washed with PBS. Then, PBS containing 5 mM EDTA was added and the cells were scraped from a flask with a cell scraper. […] To each well of a 96-Well Black Clear Bottom Plate (Applied Biosystems, Inc.), 10 μL of assay buffer containing 1% dimethylsulfoxide was added to examine total binding, 10 μL of 10 μM non-labeled peptide (having the same amino acid sequence as that of the labeled one) solution diluted with assay buffer to examine non-specific binding, and 10 μL of a test compound diluted with assay buffer to examine the binding inhibition activity of the test compound, respectively. Furthermore, 90 μL each of the cell suspension was dispensed to each well. […] The specific binding is a value obtained by subtracting the non-specific binding from the total binding.

Row | Binder | intracellular Ca ion level-increasing activity (FLIPR) [1] | IC50 [2]
1 | [dY]FNSF[azaGly]L[Arg(Me)]F-NH2 [Compound No. 254: des(1)-[D-Tyr2,Phe3,AzaGly7,Arg(Me)9]MS10] | 1 specific activity to metastin (1-54) | 11 nM
2 | [d3Pal]FNSF[azaGly]L[Arg(Me)]F-NH2 [Compound No. 256: des(1)-[D-Pya(3) 2,Phe3,AzaGly7,Arg(Me)9]MS10] | 1 specific activity to metastin (1-54) | 22 nM
3 | B1 | 1 specific activity to metastin (1-54) | 8.4 nM
4 | {3‑Phenylpropionyl}-NSF[azaGly]L[Arg(Me)]F-NH2 [Compound No. 269: des(1-3)-3-Phenylpropionyl-[AzaGly7,Arg(Me)9]MS10] | 3 specific activity to metastin (1-54) | 470 nM
5 | B2 | 1 specific activity to metastin (1-54) | 15 nM
6 | {Propanoyl(3-indol-3-yl)}-NSF[azaGly]L[Arg(Me)]F-NH2 [Compound No. 260: des(1-3)-3-(3-Indolyl)propionyl-[AzaGly7,Arg(Me)9]MS10] | 5 specific activity to metastin (1-54) | 320 nM
7 | [dY][2Nal]NSF[azaGly]L[Arg(Me)]F-NH2 [Compound No. 255: des(1)-[D-Tyr2,Nal(2) 3,AzaGly7,Arg(Me)9]MS10] | 1 specific activity to metastin (1-54) | 33 nM
8 | [dY]NFNSF[azaGly]L[Arg(Me)]F-NH2 [Compound No. 244: [D-Tyr1,Phe3,AzaGly7,Arg(Me)9]MS10] | 1 specific activity to metastin (1-54) | 77 nM
9 | [dA]NWNSF[azaGly]L[Arg(Me)]F-NH2 [Compound No. 259: [D-Ala1,AzaGly7,Arg(Me)9]MS10] | 1 specific activity to metastin (1-54) | 250 nM
10 | [dY][dS]WNSF[azaGly]L[Arg(Me)]F-NH2 [Compound No. 287: [D-Tyr1,D-Ser2,AzaGly7,Arg(Me)9]MS10] | 2 specific activity to metastin (1-54) | 2.3 nM
11 | B3 | 2 specific activity to metastin (1-54) | 58 nM
12 | [dY][dH]WNSF[azaGly]L[Arg(Me)]F-NH2 [Compound No. 288: [D-Tyr1,D-His2,AzaGly7,Arg(Me)9]MS10] | 1 specific activity to metastin (1-54) | 0.072 nM
13 | B4 | 1 specific activity to metastin (1-54) | 34 nM
14 | [dY]N[Phe(4-NH2)]NSF[azaGly]L[Arg(Me)]F-NH2 [Compound No. 250: [D-Tyr1,Phe(4NH2) 3,AzaGly7,Arg(Me)9]MS10] | 1 specific activity to metastin (1-54) | 3.7 nM
15 | [dY]N[Phe(2-Cl)]NSF[azaGly]L[Arg(Me)]F-NH2 [Compound No. 247: [D-Tyr1,Phe(2CL) 3,AzaGly7,Arg(Me)9]MS10] | 1 specific activity to metastin (1-54) | 45 nM
16 | [dY]N[Phe(4-Cl)]NSF[azaGly]L[Arg(Me)]F-NH2 [Compound No. 249: [D-Tyr1,Phe(4Cl) 3,AzaGly7,Arg(Me)9]MS10] | 1 specific activity to metastin (1-54) | 150 nM
17 | [dY][dN]FNSF[azaGly]L[Arg(Me)]F-NH2 [Compound No. 257: [D-Tyr1,D-Asn2,Phe3,AzaGly7,Arg(Me)9]MS10] | 3 specific activity to metastin (1-54) | 40 nM
18 | {4‑(3-Indolyl)butyryl}-NSF[azaGly]L[Arg(Me)]F-NH2 [Compound No. 267: des(1-3)-4-(3-Indolyl)butyryl-[AzaGly7,Arg(Me)9]MS10] | 2 specific activity to metastin (1-54) | 360 nM
19 | {Diphenylacetyl′}-NSF[azaGly]L[Arg(Me)]F-NH2 [Compound No. 268: des(1-3)-Diphenylacetyl-[AzaGly7,Arg(Me)9]MS10] | 1 specific activity to metastin (1-54) | 550 nM
20 | B5 | 1 specific activity to metastin (1-54) | 98 nM
21 | B6 | 2 specific activity to metastin (1-54) | 7.1 nM
22 | B7 | 2 specific activity to metastin (1-54) | 90 nM
23 | {Indole‑3‑acetyl}-NSF[azaGly]L[Arg(Me)]F-NH2 [Compound No. 266: des(1-3)-Indole-3-acetyl-[AzaGly7,Arg(Me)9]MS10] | 2 specific activity to metastin (1-54) | 230 nM
24 | B8 | 3 specific activity to metastin (1-54) | 95 nM
